This note sets out measurements from article PMC5310649 (Biochemistry, 2016).

This data set concerns the molecule itself. In words: thin section electron microscopy.

B1: FtsZ-mVenus (FtsZ with the YFP variant mVenus fused to the C terminus) (natural protein, E. coli, UniProt P0A9A6 1-383, looked up)
chain: MFEPMELTNDAVIKVIGVGGGGGNAVEHMVRERIEGVEFFAVNTDAQALRKTAVGQTIQIGSGITKGLGAGANPEVGRNAADEDRDALRAALEGADMVFIAAGMGGGTGTGAAPVVAEVAKDLGILTVAVVTKPFNFEGKKRMAFAEQGITELSKHVDSLITIPNDKLLKVLGRGISLLDAFGAANDVLKGAVQGIAELITRPGLMNVDFADVRTVMSEMGYAMMGSGVASGEDRAEEAAEMAISSPLLEDIDLSGARGVLVNITAGFDLRLDEFETVGNTIRAFASDNATVVIGTSLDPDMNDELRVTVVATGIGMDKRPEITLVTNKQVQQPVMDRYQQHGMAPLTQEQKPVAKVVNDNAPQTAKEPDYLDIPAFLRKQAD
Turning to B1, the binding result was “binds”.
